Measurements reported in PMC9918737.
pKd: −log10 of the molar value.

Experiments:
[1] = biological target: ubH2B mono-nucleosome (H2B mono-ubiquitinated at lysine 120) (UniProt P0C0S8); assay: single-molecule magnetic tweezers (force-jump); 409-bp nucleosome tethered between coverslip and bead, 83 nM FACT in the flow cell, force jumps between 0.1 pN and 11 pN (H2B-nucleosome) or 6 pN (ubH2B-nucleosome), Kd from the ratio of free to FACT-bound states, 25 °C
[2] = biological target: ubH2B mono-nucleosome (H2B mono-ubiquitinated at lysine 120) (UniProt P0C0S8)
[3] = biological target: unmodified H2B mono-nucleosome (UniProt P0C0S8)

Work on “recombinant FACT complex (Flag-SPT16 and His6-SSRP1) (from UniProt Q9Y5B9 1-1047; Q08945 1-709)” yielded a pKd [1] of 8.10, a rupture force of the inner DNA wrap of ubH2B-nucleosome in the presence of FACT (magnetic tweezers) [2] of 20 pN and a rupture force of the outer DNA wrap of ubH2B-nucleosome in the presence of FACT (magnetic tweezers) [2] of 10 pN. For the same substance, the tension at which the H2B-nucleosome is completely disrupted in the presence of FACT (magnetic tweezers, repeated stretching) [3] was < 10 pN.
